Laboratory results: patent US20110263454A1, “Methods of Identifying Functional Characteristics of Promoters, Transcription Modifying Proteins and Transcription Modulating Agents” (Salk Institute for Biological Studies, priority 2008, published 2011)

B1: SHP: Small Heterodimer Partner (NR0B2), cDNA driver (protein, UniProt Q15466 1-257, looked up)
Nuclear receptor subfamily 0 …: MSTSQPGACPCQGAASRPAILYALLSSSLKAVPRPRSRCLCRQHRPVQLCAPHRTCREALDVLAKTVAFLRNLPSFWQLPPQDQRRLLQGCWGPLFLLGLAQDAVTFEVAEAPVPSILKKILLEEPSSSGGSGQLPDRPQPSLAAVQWLQCCLESFWSLELSPKEYACLKGTILFNPDVPGLQAASHIGHLQQEAHWVLCEVLEPWCPAAQGRLTRVLLTASTLKSIPTSLLGDLFFRPIIGDVDIAGLLGDMLLLR
B2: DAX-1: DAX1 (NR0B1), cDNA driver (protein, UniProt P51843 1-470, looked up)
Nuclear receptor subfamily 0 …: MAGENHQWQGSILYNMLMSAKQTRAAPEAPETRLVDQCWGCSCGDEPGVGREGLLGGRNVALLYRCCFCGKDHPRQGSILYSMLTSAKQTYAAPKAPEATLGPCWGCSCGSDPGVGRAGLPGGRPVALLYRCCFCGEDHPRQGSILYSLLTSSKQTHVAPAAPEARPGGAWWDRSYFAQRPGGKEALPGGRATALLYRCCFCGEDHPQQGSTLYCVPTSTNQAQAAPEERPRAPWWDTSSGALRPVALKSPQVVCEAASAGLLKTLRFVKYLPCFQVLPLDQQLVLVRNCWASLLMLELAQDRLQFETVEVSEPSMLQKILTTRRRETGGNEPLPVPTLQHHLAPPAEARKVPSASQVQAIKCFLSKCWSLNISTKEYAYLKGTVLFNPDVPGLQCVKYIQGLQWGTQQILSEHTRMTHQGPHDRFIELNSTLFLLRFINANVIAELFFRPIIGTVSMDDMMLEMLCTKI
B3: GCNF: Germ Cell Nuclear Factor (NR6A1, GCNF1), cDNA driver (protein, UniProt Q15406 1-480, looked up)
Nuclear receptor subfamily 6 …: MERDEPPPSGGGGGGGSAGFLEPPAALPPPPRNGFCQDELAELDPGTISVSDDRAEQRTCLICGDRATGLHYGIISCEGCKGFFKRSICNKRVYRCSRDKNCVMSRKQRNRCQYCRLLKCLQMGMNRKAIREDGMPGGRNKSIGPVQISEEEIERIMSGQEFEEEANHWSNHGDSDHSSPGNRASESNQPSPGSTLSSSRSVELNGFMAFREQYMGMSVPPHYQYIPHLFSYSGHSPLLPQQARSLDPQSYSLIHQLLSAEDLEPLGTPMLIEDGYAVTQAELFALLCRLADELLFRQIAWIKKLPFFCELSIKDYTCLLSSTWQELILLSSLTVYSKQIFGELADVTAKYSPSDEELHRFSDEGMEVIERLIYLYHKFHQLKVSNEEYACMKAINFLNQDIRGLTSASQLEQLNKRYWYICQDFTEYKYTHQPNRFPDLMMCLPEIRYIAGKMVNVPLEQLPLLFKVVLHSCKTSVGKE

Experiments:
[1] = system: mCAR promoter; experiment: NHR-promoter luciferase screen, mCAR promoter; assay type: cell-based, mouse; conditions: for luciferase activity normalized to lacZ activity and to a control, mCAR: mCAR promoter-luciferase, CV-1 cells, NHR +/- ligand, control = 1.00; for Luc. act., normalized to lacZ / Normalized Luc. act., normalized to control: mCAR promoter, HR/ligand component
Outline: (§1)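 CV-1 cells were co-transfected with 50 ng NHR (homodimer or NHR/RXR heterodimer), 100 ng promoter-luciferase construct and 50 ng LacZ. Luciferase was normalized to LacZ and to a no-NHR/no-ligand control.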

[2] = system: mABCA1 promoter; experiment: NHR-promoter luciferase screen, mABCA1 promoter; assay type: cell-based, mouse; conditions: for Luc. act., normalized to lacZ / Normalized Luc. act., normalized to control: ABCA1 promoter, hormone receptor with or without its ligand; for Normalized Luc. act., normalized to control: relative to control; for mABCA1 promoter reporter activity: transcription factor +/- ligand, control = 1.00
Outline: as §1

[3] = system: hPOMC promoter; experiment: NHR-promoter luciferase screen, hPOMC promoter; assay type: cell-based, human; conditions: for Luc. act., normalized to lacZ / Normalized Luc. act., normalized to control: hPOMC promoter, HR/ligand component; for hPOMC promoter reporter activity: transcription factor +/- ligand, control = 1.00
Outline: as §1

[4] = system: mPOMC promoter; experiment: NHR-promoter luciferase screen, mPOMC promoter; assay type: cell-based, mouse; conditions: for Results of assays of transcription factor (+/- ligand) with mPOMC: Table 6d, luciferase activity relative to control (control = 1.00); for Luc. act., normalized to lacZ / Normalized Luc. act., normalized to control: mPOMC promoter, HR component with or without ligand; for Normalized Luc. act., normalized to control: relative to control
Outline: as §1

[5] = system: hCAR promoter; experiment: NHR-promoter luciferase screen, hCAR promoter; assay type: cell-based, human; conditions: for luciferase activity normalized to lacZ activity and to a control, hCAR: hCAR promoter-luciferase, CV-1 cells, NHR +/- ligand, control = 1.00; for Luc. act., normalized to lacZ / Normalized Luc. act., normalized to control: hCAR promoter, HR/ligand component
Outline: as §1

[6] = system: mDio1 promoter; experiment: NHR-promoter luciferase screen, mDio1 promoter; assay type: cell-based, mouse; conditions: for Luc. act., normalized to lacZ / Normalized Luc. act., normalized to control: Dio1, HR component without or with its ligand; for mDio1 promoter reporter activity: transcription factor +/- ligand, control = 1.00
Outline: as §1

| Molecule | luciferase activity normalized to lacZ activity and to a control, mCAR [1] | Luc. act., normalized to lacZ [1] | Normalized Luc. act., normalized to control [1] | Luc. act., normalized to lacZ [2] | Normalized Luc. act., normalized to control [2] | mABCA1 promoter reporter activity [2] | Luc. act., normalized to lacZ [3] | Normalized Luc. act., normalized to control [3] | hPOMC promoter reporter activity [3] | Results of assays of transcription factor (+/- ligand) with mPOMC [4] | Luc. act., normalized to lacZ [4] | Normalized Luc. act., normalized to control [4] | luciferase activity normalized to lacZ activity and to a control, hCAR [5] | Luc. act., normalized to lacZ [5] | Normalized Luc. act., normalized to control [5] | Luc. act., normalized to lacZ [6] | Normalized Luc. act., normalized to control [6] | mDio1 promoter reporter activity [6] |
| --- | --- | --- | --- | --- | --- | --- | --- | --- | --- | --- | --- | --- | --- | --- | --- | --- | --- | --- |
| B1 | 0.95 | 36.17 | 0.9 | 6.8 | 1.2 | 1.21 | 1.9 | 0.4 | 0.43 | 0.95 | 65.6 | 1.0 | 0.99 | 31.3 | 1.0 | 4.8 | 1.1 | 1.07 |
| B2 | 0.96 | 36.74 | 1.0 | 5.8 | 1.0 | 1.04 | 2.7 | 0.6 | 0.63 | 0.92 | 63.4 | 0.9 | 1.20 | 38.0 | 1.2 | 8.9 | 2.0 | 2.00 |
| B3 | 0.78 | 29.68 | 0.8 | 7.6 | 1.4 | 1.36 | – | 0.0 | 0.00 | 0.61 | 42.0 | 0.6 | 0.93 | 29.2 | 0.9 | 5.1 | 1.1 | 1.13 |
